Molecular target: T1, C-terminal domain of XerD (XerDC), as part of the XerDC-FtsKγ fusion protein (E. coli, UniProt P0A8P8 111-298)
T1 construct: XerD tyrosine recombinase, E. coli, residues 111 to 298 (C-terminal, catalytic domain); also called XerD C-terminal domain; XerD portion of XerDC–γ; source: overproduced from pBad24, purified (Ni2+ resin, HiTrap heparin HP, HiTrap Q HP)
T1 sequence (looked up): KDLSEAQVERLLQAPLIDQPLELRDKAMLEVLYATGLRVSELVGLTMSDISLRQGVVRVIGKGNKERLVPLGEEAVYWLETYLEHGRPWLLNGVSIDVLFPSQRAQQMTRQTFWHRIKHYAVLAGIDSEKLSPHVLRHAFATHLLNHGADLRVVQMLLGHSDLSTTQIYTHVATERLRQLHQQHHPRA
Test: crystal structure; XerDC (XerD 111-298) and FtsKγ (FtsK 1261-1329) joined on one chain by a 16 amino acid linker; hanging drop, 100 mM Bicine (pH9), 10% (w/v) polyethylene glycol 8000; molecular replacement, 2.3 Å
Conditions: both partners purified

B1: FtsKγ domain, as part of the XerDC-FtsKγ fusion protein (domain or fragment, E. coli, UniProt P46889 1261-1329, looked up)
chain: GAEELDPLFDQAVQFVTEKRKASISGVQRQFRIGYNRAARIIEQMEAQGIVSEQGHNGNREVLAPPPFD
notes: FtsK DNA translocase, E. coli, residues 1261 to 1329 (γ domain, very C-terminus); In the functional rows with m4 it is the γ portion of the full length XerD-FtsKγ fusion, from which the crystallised fusion was amplified; also called γ domain of FtsK; source: overproduced from pBad24, purified (Ni2+ resin, HiTrap heparin HP, HiTrap Q HP)
  binding result: binds
